These results are taken from PMC8932917.

The test deals with Biotinylated FcγRIIIa (human) (UniProt P08637). In words: BLI. In general terms: Biolayer interferometry detects binding as a change in optical thickness at a sensor tip.
Sequence of UniProt P08637 (P08637 21-186): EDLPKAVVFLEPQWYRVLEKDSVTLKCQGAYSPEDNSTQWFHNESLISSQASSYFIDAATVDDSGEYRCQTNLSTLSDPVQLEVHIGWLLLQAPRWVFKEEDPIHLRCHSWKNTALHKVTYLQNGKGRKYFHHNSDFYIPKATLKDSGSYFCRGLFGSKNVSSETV

Regarding “Mogamulizumab, anti-CCR4 humanized IgG1 (antibody)”, the fold larger kon than Ada is 3.5 fold, the fold larger kon than Rtx is 4 fold, the fold lower KD than Ada is over 20 fold and the fold lower KD than Rtx is over 20 fold. The substance further came in with a fold smaller koff than Ada of 6 fold and a fold smaller koff than Rtx of 5 fold.
